# Reference: patent US20100111995A1
# Biological target: CCR5 expressed on the cell surface (CEM.NKR-CCR5 cells; stimulated CD4+ T cells; CEM 5.25.EGFP.luc.M7 cells) (human) (UniProt P51681)
# Test: cell-based or functional assay
substance,measurement,value
RANTES (from UniProt P13501 24-91) (ligand),"Antibody concentrations inhibiting HIV, 50% inhibition",5.8 ng/mL
same,"Antibody concentrations inhibiting HIV, 70% inhibition",14.7 ng/mL
